Reference: patent US20140178375A1 (TRUSTEES OF THE UNIVERSITY PF PENNSYLVANIA, published 2014)

Key:
human EGFR on NE91 cells [1] = target: T1, human EGFR on NE91 cells (human, UniProt P00533 25-1210); experiment: FACS, 100 ug S22-Fc on 1x10^5 cells, anti-His detection
T1 construct: whole, on cells; also called epidermal growth factor receptor
Protocol: FACS analysis was used to detect binding of S22-Fc to HER2-expressing cell lines. Purified S22-Fc was used in FACS experiments to stain cells with different expression levels of HER2 and EGFR. Initially, 1×10⁵ cells were incubated with 100 μg S22-Fc for 30 minutes on ice. The cells were then washed and incubated with his-tag-specific rabbit antisera and secondary Alexa488-conjugated anti-rabbit antibodies, used sequentially. As a negative control, parallel cell preparations were exposed to only his-tag-specific rabbit antisera and secondary antibodies.

[2] = target: T2, human HER2 on T6-17 cells (human, UniProt P04626 23-1255); experiment: FACS on T6-17 cells expressing human HER2, detected by anti-his tag and secondary antibodies; control (anti-his tag and secondary antibodies only) has Geo mean 3.99
T2 construct: whole, on cells; also called HER2/neu; human epidermal growth factor receptor 2

human EGFR on NE91 cells [3] = target: T1, human EGFR on NE91 cells; experiment: FACS on NE91 cells
[4] = target: T2, human HER2 on T6-17 cells; experiment: FACS on T6-17 cells

binding result (human EGFR on NE91 cells [1]) | FACS Geo mean [2] | binding result (human EGFR on NE91 cells [3]) | binding result [4] | Binder
binds | 27.2 |  |  | S22-Fc (Fc fusion, S22 peptide, glycine-serine linker, human IgG1 Fc (hinge part, CH2, CH3) and C-terminal His tag; Expressed in E. coli and purified on Ni-sepharose; also called S22-Fc fusion protein) MAYCFPDEEGACYGGGGGSDKTHTCPPCPAPELLGGPSVFLFPPKPKDTLMISRTPEVTCVVVDVSHEDPEVKFNWYVDGVEVHNAKTKPREEQYNSTYRVVSVLTVLHQDWLNGKEYKCKVSNKALPAPIEKTISKAKGQPREPQVYTLPPSRDELTKNQVSLTCLVKGFYPSDIAVEWESNGQPENNYKTTPPVLDSDGSFFLYSKLTVDKSRWQQGNVFSCSVMHEALHNHYTQKSLSLSLEHHHHHH
 |  | binds | binds | S22-FcT322A (Fc fusion) MAYCFPDEEGACYGGGGGSDKTHTCPPCPAPELLGGPSVFLFPPKPKDTLMISRTPEVTCVVVDVSHEDPEVKFNWYVDGVEVHNAKTKPREEQYNSAYRVVSVLTVLHQDWLNGKEYKCKVSNKALPAPIEKTISKAKGQPREPQVYTLPPSRDELTKNQVSLTCLVKGFYPSDIAVEWESNGQPENNYKTTPPVLDSDGSFFLYSKLTVDKSRWQQGNVFSCSVMHEALHNHYTQKSLSLSLEHHHHHH
 | 39.1 | binds |  | LS22FcT322AG7 (Fc fusion, It has the N-terminal MLCGGGG before the S22 peptide, the T322A Fc and a His tag; also called S22-FcT322A#2; S22FcT322A#2) MLCGGGGYCFPDEEGACYGGGGGSDKTHTCPPCPAPELLGGPSVFLFPPKPKDTLMISRTPEVTCVVVDVSHEDPEVKFNWYVDGVEVHNAKTKPREEQYNSAYRVVSVLTVLHQDWLNGKEYKCKVSNKALPAPIEKTISKAKGQPREPQVYTLPPSRDELTKNQVSLTCLVKGFYPSDIAVEWESNGQPENNYKTTPPVLDSDGSFFLYSKLTVDKSRWQQGNVFSCSVMHEALHNHYTQKSLSLSLEHHHHHH
 | 28.7 |  |  | LS22FcT322AS7 (Fc fusion) S22 peptide-Fc fusion chain with C-terminal His tag: MLCGGGSYCFPDEEGACYGGGGGSDKTHTCPPCPAPELLGGPSVFLFPPKPKDTLMISRTPEVTCVVVDVSHEDPEVKFNWYVDGVEVHNAKTKPREEQYNSAYRVVSVLTVLHQDWLNGKEYKCKVSNKALPAPIEKTISKAKGQPREPQVYTLPPSRDELTKNQVSLTCLVKGFYPSDIAVEWESNGQPENNYKTTPPVLDSDGSFFLYSKLTVDKSRWQQGNVFSCSVMHEALHNHYTQKSLSLSLEHHHHHH
 | 51 |  |  | LS22FcG7 (Fc fusion, Wild type Fc fragment with the N-terminal MLCGGGG before the S22 peptide, and a His tag) MLCGGGGYCFPDEEGACYGGGGGSDKTHTCPPCPAPELLGGPSVFLFPPKPKDTLMISRTPEVTCVVVDVSHEDPEVKFNWYVDGVEVHNAKTKPREEQYNSTYRVVSVLTVLHQDWLNGKEYKCKVSNKALPAPIEKTISKAKGQPREPQVYTLPPSRDELTKNQVSLTCLVKGFYPSDIAVEWESNGQPENNYKTTPPVLDSDGSFFLYSKLTVDKSRWQQGNVFSCSVMHEALHNHYTQKSLSLSLEHHHHHH
